From paper PMC7768477 (Antibodies, 2020)
Residue numbers refer to the chain shown, from its start.

B1: sdAb E1 (VHH)
VHH: DVQLQASGGGLVQTGGSLRLSCENSGRALRIMGWFRQAPGKEREFVATINRNGESTYYSDSVKGRFTISRDNNKNTVYLQMNNLKPEDTGVYNCAADRPGPTQIKTRADDYDYWGEGTQVTVSS
notes: also called clone E1; source: E. coli Tuner (DE3), periplasmic, purified (osmotic shock, IMAC, gel filtration)
B2: sdAb B5 (VHH)
VHH: EVQLQASGGGLAQPGGSLRLSCAASGFTLVYYGIGWFRQAPGKEREGVSCISSNDGSTYYADSVKGRFTISRDAAKNTVYLQMNSLKPEDTAVYYCATELGNTHRGSFFPNRRVERCRTDDFASWGQGTQVTVSS
notes: source: E. coli Tuner (DE3), periplasmic, purified (osmotic shock, IMAC, gel filtration)
B3: sdAb C7 (VHH)
VHH: B2 VHH with A12V, A23V, V79M
notes: as for B2
B4: sdAb E11 (VHH)
VHH: B2 VHH with S57T, A74N, F108Y, N111K, R112Q, R118H, D120G
notes: as for B2
B5: sdAb H6 (VHH)
VHH: B2 VHH with E1D, L11V, A12V, A23V, E115K
notes: also called clone H6; Bt-H6; source: E. coli Tuner (DE3), periplasmic, purified (osmotic shock, IMAC, gel filtration)
B6: sdAb F3 (VHH)
VHH: B2 VHH with E1D, A12V, N54Y, S57T, A74N, F108Y, N111K, R112Q, R118H, D120G
notes: as for B2
B7: sdAb G11 (VHH)
VHH: DVQLQASGGGLVQAGDSLTLSCAASGRTVSPYGVGWFRQAPGREREFVAALSRSGTFTAYADSVKGRFTISRDNAKNTVYLQMNSLKPDDTAVYHCAARSASSYYSTYRKEDDYHYWGQGTQVTVSS
notes: as for B2
B8: sdAb E10 (VHH)
VHH: DVQLQASGGGLVQAGASLRLSCAASGFTYTMGWFRQAPGQEREFVAAIARSGGTTYYTDSVKGRFTISRDNAKKTVFLQLNSLKPEDTAVYYCAADALPYSAQSMSTRNPGYWGQGTQVTVSS
notes: as for B2

Molecular target: T1, Lassa NPc (C-terminal portion of NP encoding residues 341-569) (Lassa virus lineage IV, strain Josiah, UniProt P13699)
T1 construct: source: bought: Zalgen (recombinant)
T1 sequence (P13699 341-569): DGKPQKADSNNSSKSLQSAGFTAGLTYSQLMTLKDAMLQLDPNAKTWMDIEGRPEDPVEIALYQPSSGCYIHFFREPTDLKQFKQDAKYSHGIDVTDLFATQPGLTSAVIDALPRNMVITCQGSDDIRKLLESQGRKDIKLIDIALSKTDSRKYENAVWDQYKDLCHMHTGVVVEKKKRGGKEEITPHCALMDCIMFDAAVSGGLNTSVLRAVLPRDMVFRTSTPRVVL
Assay: SPR; ProteOn XPR36; […] (20 ug/mL in 10 mM sodium acetate pH 5.0); […]
Details: both partners purified

Question: Does B1 bind?
Answer: no binding

Question: Does B2 bind?
Answer: no binding

Question: Does B3 bind?
Answer: no binding

Question: Does B4 bind?
Answer: no binding

Question: Does B5 bind?
Answer: no binding

Question: Does B6 bind?
Answer: no binding

Question: Does B7 bind?
Answer: no binding

Question: Does B8 bind?
Answer: no binding

Molecular target: T2, Lassa NPn (N-terminal portion of NP encoding residues 1-340) (Lassa virus lineage IV, strain Josiah, UniProt P13699)
T2 construct: source: bought: Zalgen (recombinant)
T2 sequence (P13699 1-340): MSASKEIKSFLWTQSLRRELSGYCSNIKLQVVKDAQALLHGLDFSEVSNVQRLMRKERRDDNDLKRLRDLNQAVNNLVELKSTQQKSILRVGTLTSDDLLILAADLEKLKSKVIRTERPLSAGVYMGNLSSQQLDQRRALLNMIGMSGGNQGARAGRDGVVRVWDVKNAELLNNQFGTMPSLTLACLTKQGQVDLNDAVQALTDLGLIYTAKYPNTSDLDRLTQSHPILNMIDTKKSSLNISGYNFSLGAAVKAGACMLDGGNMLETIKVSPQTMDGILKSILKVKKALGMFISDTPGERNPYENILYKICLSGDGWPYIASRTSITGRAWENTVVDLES
Assay: SPR; ProteOn XPR36; […] (20 ug/mL in 10 mM sodium acetate pH 5.0); […]; Langmuir model
Details: both partners purified

Question: Does B1 bind?
Answer: no binding

Question: Which results are given for B2?
Answer: Kd: 19 nM; koff: 0.0061 s⁻¹; kon: 320000 M⁻¹ s⁻¹

Question: What does the source list for B3?
Answer: Kd: 7.5 nM; koff: 0.0038 s⁻¹; kon: 510000 M⁻¹ s⁻¹

Question: Which Kd does the source give for B4 here?
Answer: 57 nM

Question: And the koff?
Answer: 0.0076 s⁻¹

Question: What about the kon of the same binder?
Answer: 150000 M⁻¹ s⁻¹

Question: What does the source list for B5?
Answer: Kd: 9.3 nM; koff: 0.0057 s⁻¹; kon: 610000 M⁻¹ s⁻¹

Question: What does the source list for B6?
Answer: Kd: 7.5 nM; koff: 0.003 s⁻¹; kon: 400000 M⁻¹ s⁻¹

Question: For B7, which Kd is on record?
Answer: 184 nM

Question: What about the koff of the same binder?
Answer: 0.07 s⁻¹

Question: And the kon?
Answer: 380000 M⁻¹ s⁻¹

Question: Which results are given for B8?
Answer: Kd: 69 nM; koff: 0.13 s⁻¹; kon: 1.9e+06 M⁻¹ s⁻¹
